Experimental data taken from PMC10673952 (2023).

Legend:
FimFt = biological target: T1, FimFt (E. coli); assay: 37 °C, excess FimC; printed as 0.44 h-1
T1 chain: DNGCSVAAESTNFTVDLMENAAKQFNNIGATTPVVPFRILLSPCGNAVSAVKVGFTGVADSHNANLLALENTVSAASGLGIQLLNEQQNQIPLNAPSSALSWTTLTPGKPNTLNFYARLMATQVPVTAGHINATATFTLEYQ

[1] = biological target: T2, FimI-FimAtHis (the two subunits of the ternary FimCHisIA complex) (E. coli W3110 | E. coli, UniProt P39264 20-179; P04128 37-182); assay: 37 °C, excess FimC; printed as 0.18 h-1
T2 chain 1: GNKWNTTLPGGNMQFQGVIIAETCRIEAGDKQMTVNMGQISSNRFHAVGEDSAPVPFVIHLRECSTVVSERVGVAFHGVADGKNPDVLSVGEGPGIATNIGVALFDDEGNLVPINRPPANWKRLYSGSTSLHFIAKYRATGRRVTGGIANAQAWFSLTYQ
T2 chain 2: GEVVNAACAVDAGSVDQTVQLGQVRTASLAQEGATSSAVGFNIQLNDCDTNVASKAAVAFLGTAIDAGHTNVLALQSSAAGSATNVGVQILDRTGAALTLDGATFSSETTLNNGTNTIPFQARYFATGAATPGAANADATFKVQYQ

FimI = biological target: T3, FimI (E. coli W3110, UniProt P39264 20-179); assay: 37 °C, excess FimC
T3 chain: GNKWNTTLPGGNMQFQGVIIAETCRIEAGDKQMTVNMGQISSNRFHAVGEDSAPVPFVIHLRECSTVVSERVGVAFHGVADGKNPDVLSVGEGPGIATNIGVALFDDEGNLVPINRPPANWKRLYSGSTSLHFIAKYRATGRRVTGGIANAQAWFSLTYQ

[2] = biological target: T4, FimF-FimGt (the two subunits of the ternary FimCHisFG complex) (E. coli, UniProt P08189 21-176; P08190 24-167); assay: 37 °C, excess FimC; printed as 0.49 h-1
T4 chain 1: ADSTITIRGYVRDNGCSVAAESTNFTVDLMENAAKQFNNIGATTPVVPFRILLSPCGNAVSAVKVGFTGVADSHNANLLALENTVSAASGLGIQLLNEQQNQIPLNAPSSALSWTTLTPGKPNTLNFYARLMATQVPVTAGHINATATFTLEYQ
T4 chain 2: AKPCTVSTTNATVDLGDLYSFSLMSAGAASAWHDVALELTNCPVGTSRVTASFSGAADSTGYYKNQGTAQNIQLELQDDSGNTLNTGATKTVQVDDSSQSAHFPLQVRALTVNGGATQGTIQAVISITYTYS

koff (FimFt): 0.000122 s⁻¹
koff [1]: 5e-05 s⁻¹
koff (FimI): 0.011 s⁻¹
koff [2]: 0.000136 s⁻¹
B1: FimCHis (FimC with C-terminal hexahistidine tag) (natural protein)
chain: GVALGATRVIYPAGQKQEQLAVTNNDENSTYLIQSWVENADGVKDGRFIVTPPLFAMKGKKENTLRILDATNNQLPQDRESLFWMNVKAIPSMDKSKLTENTLQLAIISRIKLYYRPAKLALPPDQAAEKLRFRRSANSLTLINPTPYYLTVTELNAGTRVLENALVPPMGESTVKLPSDAGSNITYRTINDYGALTPKMTGVME
